Test results taken from the supplement of paper PMC10567573.

B1: COX4I1 (parent)
chain: FDKEWVAKQTKRMLDMKVNPIQGL
B2: LOXL2 (parent)
chain: YVEVKEGKTWKQICDKHWTAKNSR

Variants of: B1
Test: protein stability index of a GFP-peptide fusion (GPS, HEK-293T) (PSI 1-6); higher = more stable
Settings: c terminus: a fixed tail appended
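Also: lentivirally expressed fusions sorted by FACS into six bins by GFP to DsRed ratio, PSI derived from sequencing read proportions per bin multiplied by bin number.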

Protein stability index, by site and new letter:
K3: V 1.68, P 1.75
V18: N 1.86, S 1.81, P 2.13, A 1.79
Q9: C 3.23, W 1.8, N 1.42, V 1.46, M 2.54, P 2, A 3.55
T10: V 1.49, M 1.91, E 2.21
Q22: I 2.79, F 1.73, H 1.93, A 1.93, T 1.91, D 2.31
L14: D 2.06, G 1.72, S 1.54, M 1.47
M16: K 1.5, R 1.72, A 1.48
M13: I 2.34, K 1.88, N 2.23, W 1.56, E 2.06, R 1.64
A7: N 1.65, W 1.77, V 1.18, F 1.56
K8: P 2.33, H 1.77, S 1.75, F 1.99
R12: D 1.88, Y 1.56, C 1.43
K17: Q 1.41, H 1.44, D 2.49, L 2.57, R 1.95, S 1.55
I21: M 2.63, E 1.66, V 1.89, L 1.64, C 2.6, R 1.61
D15: Q 1.6, S 1.58
G23: I 1.81, E 1.72, Q 2.02, C 3.51, A 1.43, S 1.7, K 2.02
E4: P 1.66, I 1.47, A 2.41, G 1.43, W 1.66, N 1.69
L24: S 2.31, H 2.55, Y 1.59
P20: K 1.55
W5: M 3.52
F1: I 3.11, V 2.77, R 2.42
K11: I 1.8, M 1.9
V6: F 1.55, E 3.33, L 2.37, Q 2.83, R 2.1
N19: W 1.38, A 1.75, T 1.16
D2: C 4.02, V 1.26, P 2.51

Variants of: B2
Test: as above
Settings: c terminus: a fixed tail appended

Protein stability index, by site and new letter:
V2: L 2.72, S 2.86, P 2.12, W 1.98, T 2.22, F 2.21, H 1.55, I 2.66, G 1.98, A 1.78
N22: T 2.54, M 2.35, H 2.99, F 2.29, L 1.78, K 3.05, E 2.25, G 2.13, W 3.39, C 1.97, I 2.8, V 2.79, D 2.42
G7: T 1.24, S 1.86, F 1.65, Q 2.42, L 1.95, A 1.61, M 1.72, D 1.6, Y 2.18, I 1.85, R 1.62
Y1: C 3.36, E 3.46, T 3.21, P 3.68, K 3.84, I 2.68, H 3.14, V 3.4, D 3.52, W 2.29, M 3.49, L 3.34, A 3.4
K5: P 1.7, T 2.35, L 2.65, G 2.46, W 2.87, M 2.33, Y 1.78, H 1.85, I 2.46, Q 3.01
A20: Q 2.54, H 2.07, F 1.9
K16: F 2.02, G 3.14, A 2.08, H 2.83, S 3.34, M 2.3, D 3.38, P 1.95
E3: I 2.53, G 3.63, A 4.18, S 3.96, H 2.92, T 3.63, W 2.6, K 2.68, V 1.56, Y 2.73, R 1.88, M 1.06, F 2.52, N 2.29
E6: N 2.44, C 3.35, A 2.14, P 2.18, D 2.9, V 3.77, K 2.89, F 2.49, L 2.79, M 2.88, H 2.64, Q 4.18
K11: M 2.1, F 3.38, S 3.37, D 1.18, R 2.52, H 2.45, I 2.23, P 1.99
W18: R 1.5, Y 1.56, Q 1.84, K 2.11, C 2.54, D 3.01, G 2, P 1.94, A 2.76
R24: G 1.53, V 2.2, Q 2.33, H 3.07, N 2.48, S 3.24, E 2.33, W 1.79, T 3.49, M 2.09, C 2.72
K21: Y 2.14, P 2.67, V 2.03, I 1.68, F 3.06, D 2.34, R 3.06, A 2.3, W 1.96
V4: Y 1.14, P 1.26, C 2.22, W 1.39, R 2.1, F 2.36, M 1.82, H 1.74, K 2.03, A 2.73, Q 1.51
Q12: F 2.46, H 3.06, Y 2.07, K 2.63, M 2.64, D 2.02, V 1.48, W 2.42, R 3.12, I 3.16
I13: W 2.25, E 2.33, Y 1.6, A 2.73, R 2.59, V 2.44, H 2.42, S 2.38, N 1.37
S23: E 2.17, T 2.33, M 1.97, G 1.83, K 2.88, D 2.41, R 2.09, P 1.94, N 1.71
W10: A 2.42, P 2.69, Y 1.93, N 2.5, R 2.2, I 2.3, D 3.03, G 2.23, M 2.37, K 2.61
H17: C 1.56, N 2.89, Q 1.53, K 2.98, L 2.81, P 3.06, F 3.2, I 2.14, E 2.3, T 1.97, M 2.41, G 3.27, A 3
C14: P 1.98, K 1.45, A 1.77, G 2.31, F 2.07, T 2.52, I 2.16, M 2.98, W 4.18, H 4.51, Y 1.93, V 1.93, D 2.4
T9: W 3.01, N 1.99, V 1.94, G 2.11, L 2.52, K 2.43, D 1.6, I 2.48
T19: C 2.75, A 1.45, Y 2.29, R 1.77, K 1.87, W 2.64, L 1.39, S 1.72
D15: S 2.56, F 2.12, C 1.72, N 2.27, L 2.62, R 1.8, P 1.76, E 3.34, H 2.49, T 2.26
K8: V 2.07, S 2.44, C 2.17, M 1.91, D 2.41, T 1.55, A 2.49, N 1.68
